Test results as given in patent publication US20260216354A1, “ANTI-CMET ANTIBODY, ANTIBODY-DRUG CONJUGATE, AND PREPARATION METHOD THEREFOR AND USE THEREOF” (MEDILINK THERAPEUTICS (SUZHOU) CO., LTD., priority 2022, published 2026).
Changes are numbered by the printed parent chain.

B1: 55A10G6: murine-derived anti-cMET monoclonal antibody; VL SEQ ID NO: 3, VH SEQ ID NO: 4 (antibody, V domains shown)
VH: QIQLQQSGPELVKPGASVKISCKASGYTFTDYYLNWVRQRPGQGLEWIGWIFPGSGNTKYIEKFKGKATLTVDTSSSTAYMLLSSLTSEDSAVYFCAGGDYGGFTYWGQGTLVAVSA
VL: DIQMTQSPPSLSASVGETVTITCGASENIYGALNWYQRKQGKSPQLLIYGATNLAAGMSSRFSGSGSGRQFSLKISSLHPDDVATYYCQNVLSEPLTFGAGTKLELK
B2: 44H10E8: murine-derived anti-cMET monoclonal antibody; VL SEQ ID NO: 5, VH SEQ ID NO: 6 (antibody, V domains shown)
VH: QVHLQQSGAELARPGASVKMSCKASGYTFISYTIHWVKQSPGQGLEWIGYINPSSGYAKNNPKFQDKATLTADTSSTTAYIQLSSLTSEDSAVYYCTRPYGDFVDWYFDVWGTGTTVTVSS
VL: NIMMTQSPSSLAVSAGEKVTMNCKSSQSVLYFSNQKNCLAWYQQKPGQSPKLLIYWASTRESGVPDRFTGSGSGTDFTLTISSVQADDLAVYYCQQYLSSLTFGAGTKLELK
B3: 45A5G10: murine-derived anti-cMET monoclonal antibody; VL SEQ ID NO: 1, VH SEQ ID NO: 2 (antibody, V domains shown)
VH: EVRLEESGGGFVQPGGSMKISCVASGFTFSNYWMNWVRQSPEKGLEWVAQIRLKSLNYATHYAESVKGRFTISRDDSRNSVYLQMNNLRAEDAGIYYCTEEGFAYWGRGTLVTVSA
VL: IVMTQSPASLPVSLGQRATISCRASESVDDYGVSFVNWFQQKPGQPPKLLIYTASVQESGVPARFSGSGSGTDFSLNIHPLEEDDTAMYFCQQSKEIPPTFGGGTKLEIK
B4: 41F5B2: murine-derived anti-cMET antibody of Table 1; probably clone 51D5B2 (VL SEQ ID NO: 7, VH SEQ ID NO: 8) (antibody, V domains shown)
VH: B3 VH with E6D
VL: B3 VL with S75R

biological target: T1, cMet-ECD-hFc (Homo sapiens, UniProt P08581); experiment: ELISA affinity of murine-derived antibodies to human MET-ECD-hFc; format: binding
T1 construct: made in house; host or cells: HEK293E
Procedure: (§1) 4 mice, all female, are selected from each of strains of CDT (Vital River), KM (Vital River), and Balb/c (Gempharmatech Co., Ltd.), and are enrolled into a group at about 6 weeks old. Immunization is performed using cMET-His and hcMET-mFc (Sichuan Sibowo Biotechnology Co., Ltd.), and after 2 times of booster immunization, serum titers are detected through ELISA. For a mouse with a higher ELISA protein titer, an affinity titer of tumor cells MKN-45 and a competition FACS titer of MKN45-HGF are detected through FACS. Finally, 1 mouse from each of CD1, KM, and Balb/c is selected, and the spleen and lymph node thereof are used to prepare cell suspensions for hybridoma fusion with SP2/0 mouse myeloma cells. ELISA preliminary screening is performed through human hMET-ECD-hFc antigen proteins, and after the preliminary screening, positive hybridomas are selected to be cloned. Hybridoma cells are cultured in a serum-free medium, and a collected monoclonal supernatant is purified through the ProA filler to obtain murine-derived antibodies. Affinities of the murine-derived antibodies to human MET-ECD-hFc and cyno MET-ECD-hFc proteins are detected through ELISA, and the affinity of the murine-derived antibodies to the MKN45 tumor cells and blocking of MKN45-HGF ligand competition is detected through FACS.

T1 sequence (P08581 25-932): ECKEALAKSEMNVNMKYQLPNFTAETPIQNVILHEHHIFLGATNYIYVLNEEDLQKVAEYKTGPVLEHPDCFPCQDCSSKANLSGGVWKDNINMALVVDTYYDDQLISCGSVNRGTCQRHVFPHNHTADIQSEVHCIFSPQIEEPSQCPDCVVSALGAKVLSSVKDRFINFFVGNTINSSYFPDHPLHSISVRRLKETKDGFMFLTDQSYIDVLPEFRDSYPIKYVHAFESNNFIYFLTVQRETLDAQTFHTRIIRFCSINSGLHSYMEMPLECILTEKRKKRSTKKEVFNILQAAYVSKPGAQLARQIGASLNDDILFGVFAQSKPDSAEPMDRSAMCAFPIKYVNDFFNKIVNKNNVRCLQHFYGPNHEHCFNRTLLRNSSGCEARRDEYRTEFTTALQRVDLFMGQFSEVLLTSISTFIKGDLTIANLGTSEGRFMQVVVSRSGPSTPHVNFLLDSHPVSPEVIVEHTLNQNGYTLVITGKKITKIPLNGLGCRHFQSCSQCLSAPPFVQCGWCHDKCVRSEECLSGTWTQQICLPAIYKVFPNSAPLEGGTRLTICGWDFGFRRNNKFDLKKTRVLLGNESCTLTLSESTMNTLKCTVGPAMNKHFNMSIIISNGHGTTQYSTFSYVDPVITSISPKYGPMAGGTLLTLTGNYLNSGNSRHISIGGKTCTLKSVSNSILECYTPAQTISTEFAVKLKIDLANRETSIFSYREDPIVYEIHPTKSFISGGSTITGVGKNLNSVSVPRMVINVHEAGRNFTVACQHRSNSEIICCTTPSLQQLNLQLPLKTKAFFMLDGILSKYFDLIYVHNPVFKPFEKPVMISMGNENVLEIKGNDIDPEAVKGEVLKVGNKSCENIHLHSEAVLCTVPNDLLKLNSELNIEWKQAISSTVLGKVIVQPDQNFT

Point of comparison: B1, “cMet-ECD-hFc (EC50 = ng/ml)” value 7.701 ng/mL. Against it:
- B2 — 2-fold higher, 15.76 ng/mL
- B3 — within 1.5-fold, 6.387 ng/mL
- B4 — 1.6-fold lower, 4.807 ng/mL

biological target: T2, MKN45-HGF (Homo sapiens, UniProt P08581); experiment: FACS blocking of MKN45-HGF ligand competition (murine-derived antibodies); format: binding
T2 construct: MKN45 cells expressing c-MET antigens; endogenous in cells; host or cells: MKN45
Procedure: as §1

T2 sequence (P08581 25-1390): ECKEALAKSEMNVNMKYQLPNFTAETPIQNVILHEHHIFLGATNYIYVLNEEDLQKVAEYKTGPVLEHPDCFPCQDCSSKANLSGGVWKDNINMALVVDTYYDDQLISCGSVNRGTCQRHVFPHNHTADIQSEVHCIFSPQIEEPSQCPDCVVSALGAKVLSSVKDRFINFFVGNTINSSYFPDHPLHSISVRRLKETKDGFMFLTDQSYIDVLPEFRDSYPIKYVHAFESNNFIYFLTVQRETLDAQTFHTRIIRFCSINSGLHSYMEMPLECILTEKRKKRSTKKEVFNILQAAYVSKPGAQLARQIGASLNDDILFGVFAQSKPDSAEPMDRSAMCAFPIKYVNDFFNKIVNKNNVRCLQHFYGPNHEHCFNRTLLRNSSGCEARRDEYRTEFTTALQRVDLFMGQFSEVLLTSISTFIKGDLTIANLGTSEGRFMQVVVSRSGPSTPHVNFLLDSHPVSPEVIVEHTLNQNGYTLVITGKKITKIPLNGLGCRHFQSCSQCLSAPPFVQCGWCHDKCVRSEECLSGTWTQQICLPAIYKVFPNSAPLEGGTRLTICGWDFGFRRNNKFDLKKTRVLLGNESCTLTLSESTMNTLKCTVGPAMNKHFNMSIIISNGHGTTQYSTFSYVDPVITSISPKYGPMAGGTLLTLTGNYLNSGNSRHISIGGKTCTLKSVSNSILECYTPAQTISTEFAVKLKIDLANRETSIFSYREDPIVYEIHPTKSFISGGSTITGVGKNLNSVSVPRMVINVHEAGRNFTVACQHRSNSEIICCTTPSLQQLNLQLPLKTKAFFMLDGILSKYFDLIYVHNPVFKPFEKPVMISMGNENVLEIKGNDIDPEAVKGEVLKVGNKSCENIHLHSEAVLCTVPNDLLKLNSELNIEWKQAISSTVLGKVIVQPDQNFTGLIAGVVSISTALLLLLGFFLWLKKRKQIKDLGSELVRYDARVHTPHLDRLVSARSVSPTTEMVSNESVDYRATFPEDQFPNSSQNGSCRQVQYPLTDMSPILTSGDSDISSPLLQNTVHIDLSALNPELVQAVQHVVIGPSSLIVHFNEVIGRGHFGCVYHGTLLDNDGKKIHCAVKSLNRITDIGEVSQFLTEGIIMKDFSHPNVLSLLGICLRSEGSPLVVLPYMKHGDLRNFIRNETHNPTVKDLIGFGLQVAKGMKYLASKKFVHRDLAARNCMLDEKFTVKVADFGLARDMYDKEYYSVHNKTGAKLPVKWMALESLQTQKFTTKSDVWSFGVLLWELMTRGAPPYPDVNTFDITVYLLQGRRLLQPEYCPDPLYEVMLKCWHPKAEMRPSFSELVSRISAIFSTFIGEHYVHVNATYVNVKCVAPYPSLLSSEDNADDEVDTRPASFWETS

Point of comparison: B2, “MKN45-HGF competition (IC50 = ng/ml)” value 88.57 ng/mL. Against it:
- B1 — 2.8-fold lower, 31.28 ng/mL
- B3 — 1.7-fold lower, 53.28 ng/mL

With B4 the “MKN45-HGF competition (IC50 = ng/ml)” value was “No activity”.

system: Cyno.cMet-ECD-hFc; experiment: ELISA affinity of murine-derived antibodies to cyno MET-ECD-hFc; format: binding
Procedure: as §1

Point of comparison: B2, “Cyno.cMet-ECD-hFc (EC50 = ng/ml)” value 25.72 ng/mL. Against it:
- B1 — 1.7-fold lower, 14.9 ng/mL
- B3 — 2.5-fold lower, 10.34 ng/mL

system: MKN45 tumor cells; experiment: FACS affinity of murine-derived antibodies to MKN45 tumor cells; format: binding, human
Procedure: as §1

Point of comparison: B2, “MKN45 (EC50 = ng/ml)” value 149.7 ng/mL. Against it:
- B1 — 2.4-fold lower, 63.08 ng/mL
- B3 — 3.6-fold lower, 41.25 ng/mL
- B4 — 2.3-fold higher, 348.5 ng/mL
